Laboratory results reported in USRE48599E1, “Compositions comprising TLIA-Ig fusion protein for the regulation of T regulatory cells, and methods for their use” (University of Miami, priority 2013, dated 2021).

Tests used:
[1] = Safety of TL1A-Ig in rhesus macaques (observations, chemistries, CBC, histopathology); assay type: in vivo; details: necropsy day 21, 1.5 mg/kg; for histopathology of midbrain, brainstem, liver and pancreas: H&E sections; for histopathology of sigmoid colon / histopathology of terminal ileum: four out of four animals
Procedure: (§1) Safety and Activity of TL1A-Ig in Rhesus Macaque The safety and efficacy of TL1A-Ig in non-human primates (NHP) (Indian-origin macaca mulatta) were determined. Following routine screening and 60-day quarantine, rhesus macaque (rm) TL1A-Ig or human (h) TL1A-Ig were administered to the NHP on Day 0 by intravenous (IV) bolus infusion (15 minutes) Animal weights and cage-side observations were performed daily and peripheral blood was collected for analysis of complete blood counts, routine chemistries, CD4 TruCounts, serum isolation and flow cytometry analysis. For flow cytometry analysis, peripheral blood cells were counted on a Countess automated cell counter and aliquots of 1.5×10^6 cells were distributed per sample tube, FMO (Fluorescent Minus One), controls, and compensation tubes. Test samples were stained in D-PBS and 0.5% FBS with 1 μL/mL live dead aqua blue discriminator (Life Technologies). Test samples and appropriate controls were surface stained for 30 minutes with the indicated cocktails of antibodies (purchased from BD, Becton Dickinson, eBioscience or Life Technologies). For intracellular staining, cells were permeabilized with Fix/perm solution (eBioscience) for 30 minutes at 4° C. Cells were washed and stained intracellularly with anti-FoxP3 antibody for 30 minutes. Following staining, cells were washed and resuspended in 300 μL, FACs wash buffer for acquisition on a BD™ LSR11 flow cytometer (Beckton Dickinson (BD)). Cells were acquired and analysis was done of FlowJo software (Tree Star, Inc., Ashland, Oreg.). For CD4/CD8 Trucounts, CD45, CD3, CD4 and CD8 antibodies were dispensed in TruCount tubes (BD, Cat.No. 340334); 50 uL samples were added and allowed to stain for 15 minutes at room temperature in the dark. Subsequently, samples are lysed with 450 μL FACS lysing solution, and incubated for 15 minutes. Sample tubes were analyzed in the cytometer (Calibur, BD). The events were gated on lymphocytes in side scatter (SSC) dot plot and the CD45-positive population was selected, and then reported: CD3+CD4+ T cells, and CD3+CD8+ T cells. For multiplex analysis of serum cytokines, serum from the indicated days was collected and samples and controls for standard curves were placed in filter plates, and then diluted ¼, and incubated for 2 hour at room temperature with anti-cytokine beads. The content was removed and washed 2 times with the buffer before adding a mixture of biotinylated detection antibodies to each well. After incubating with detection antibody for 1 hour, plates were washed 2 times and incubated for 30 minutes with streptavidin-PE. Plates were again washed and wells were resuspended with 150 μL sheath fluid; plates were then read and analyzed on the Luminex® SD Analyzer (Life Technologies, Inc.). The PE signal (Median Fluorescent Intensity, MFI) is proportional to the amount of each cytokine present in the sample; concentrations were calculated from the standard curve.
(§2) An inherent limitation of rodent animal models is related to the highly controlled and restricted history of foreign antigen challenge of laboratory animals bred and housed under pathogen-free conditions. Given the antigen-dependent activity of TNFRSF25 agonists, this limitation has important consequences for translational studies of these agents into NHP, wherein the history of foreign antigen exposure is dramatically more diverse. To address this question, rhesus macaque TL1A-Ig (rmTL1A-Ig) was produced and tested in NHP. Treatment-naïve Indian-origin rhesus macaques (nonhuman primates (NHP)) were procured, housed and treated by expert personnel at Advanced Bioscience Laboratories (ABL, Rockville, Md.). Rhesus macaque TL1A-Ig (rmTL1A-Ig) and human (h) TL1A-Ig were manufactured and purified as described above and shipped to ABL personnel at the indicated concentration in blinded tubes diluted in a total volume of 10 ml PBS. […]

[2] = test system: peripheral blood Treg cells; experiment: Peripheral blood Treg expansion, T cell subsets and serum cytokines in rhesus macaques; assay type: in vivo, rhesus macaque; details: for expansion of the Treg compartment at peak: 1.5 mg/kg, single IV; for expansion of the Treg compartment at peak / time of peak relative fold-expansion of Treg: peripheral blood; for serum levels of IFN-γ and TGF-β: by day 4 after treatment; for serum levels of IL-2, IL-4, IL-5, IL-10 or TNF-α: day 0, day 2, day 4, Luminex
Procedure: as §1, §2

human Tregs = experiment: Human Treg proliferation in humanized mice (NSG-hu); assay type: in vivo
Text: Commercial antibodies for use in flow cytometry, ELISA and in vivo studies were purchased from BD Pharmingen, eBioscience or BioLegend. The Armenian Hamster IgG Isotype control was bought from eBioscience. Armenian hamster hybridomas producing antibodies to mouse TNFRSF25 (4C12, agonistic) were generated as described in Fang, et al. 2008. Essential role of TNF receptor superfamily 25 (TNFRSF25) in the development of allergic lung inflammation. J Exp Med 205:1037-1048. Briefly, 4C12, hTL1A-Ig and rmTL1A-Ig were produced in hollow fiber bioreactors (Fibercell Systems, Frederick, Md.) and purified from serum-free supernatants on a protein G (4C12) or protein A (TL1A-Ig) column (GE Healthcare, UK). For flow cytometry analysis, single cell suspensions were prepared from spleen and lymph nodes. 10^6 cells were pre-blocked with anti-mouse CD16/CD32 and stained with different antibody combinations. Intracellular staining was performed according to standard procedures. Flow cytometric acquisition was performed on a Becton Dickinson Fortessa instrument and […] or FlowJo software was used for analysis.
Human fetal livers from elective terminations (12-20 weeks of gestational age, Advanced Bioscience Resources) were acquired on a fee for service basis. CD34+ cells were enriched using immunomagnetic beads according to the manufacturer's instructions following density gradient centrifugation of single cell suspensions (CD34+ selection kit; Miltenyi Biotec, Auburn, Calif.). Purity of CD34+ cells isolated was evaluated by flow cytometry and was >85%. Cells were aliquotted and frozen for later HLA typing and transplanted into sub-lethally irradiated neonatal NSG mice. HLA typed CD34+ cells hematopoietic stem cells (HSC) were placed into culture containing 10% human serum, 10 ng/ml each of interleukin (IL)-3, IL-6 and stem cell factor (SCF) in IMDM for 3-5 days. On the day of transplant, cells were harvested from culture dishes and washed in HBSS and CFU and LTC-IC assays were performed to evaluate proliferation and differentiation potential. These assays were performed using standard reagents (StemCell Inc.) and methods as published by the manufacturer. CFU potential was identical to bone marrow progenitor cells following 14 day culture in methylcellulose media supplemented with SCF, GM-CSF, IL-3 and EPO. These assays readily reveal whether gross morphological characteristics and colony numbers of isolated HSC are within expected limits. One-day old NSG mice generated from timed matings were housed with foster-dams for 24 hours post-irradiation (sub-lethal, 1 Gy, whole body irradiation) at which time they are transplanted with 1×10^6−2×10^6 pre-cultured HSC intra-hepatically (i.h.) in a volume of 20 μl using a Hamilton syringe and a 30 gauge ½ inch needle. The pups were immediately returned to their foster-dams and allowed to nurse until weaning at 28 days. Human/mouse chimerism was evaluated in peripheral blood at 15 weeks of age by determining the relative percentages of murine and human CD45+ cells by flow cytometry. Once human CD45+ cells were detected, analysis was extended to include human CD3, CD4, CD8, CD11c and CD19 on all blood collections. Successfully engrafted mice were selected when the fraction of human CD45+ cells in peripheral blood exceeded 60% (NSG-hu).
To determine the in vivo activity of hTL1A-Ig on human Tregs, humanized mice were generated using human fetal liver CD34^+ cells transferred into NOD, SCID, common γ-chain deficient (NSG) recipient mice, as described above. […] The majority of human CD45+ lymphocytes in the spleen were T cells (˜50%) followed by B cells (˜35%), NK cells (˜2-3%) and dendritic cells (˜1%).

[3] = Serum half-life of TL1A-Ig in rhesus macaques; assay type: in vivo, rhesus macaque; details: NHP serum, IV, one-phase exponential decay model
Procedure: Safety and Activity of TL1A-Ig in Rhesus Macaque The safety and efficacy of TL1A-Ig in non-human primates (NHP) (Indian-origin macaca mulatta) were determined. Following routine screening and 60-day quarantine, rhesus macaque (rm) TL1A-Ig or human (h) TL1A-Ig were administered to the NHP on Day 0 by intravenous (IV) bolus infusion (15 minutes) Animal weights and cage-side observations were performed daily and peripheral blood was collected for analysis of complete blood counts, routine chemistries, CD4 TruCounts, serum isolation and flow cytometry analysis. For flow cytometry analysis, peripheral blood cells were counted on a Countess automated cell counter and aliquots of 1.5×10^6 cells were distributed per sample tube, FMO (Fluorescent Minus One), controls, and compensation tubes. Test samples were stained in D-PBS and 0.5% FBS with 1 μL/mL live dead aqua blue discriminator (Life Technologies). […] Sample tubes were analyzed in the cytometer (Calibur, BD). […] Plates were again washed and wells were resuspended with 150 μL sheath fluid; plates were then read and analyzed on the Luminex® SD Analyzer (Life Technologies, Inc.). The PE signal (Median Fluorescent Intensity, MFI) is proportional to the amount of each cytokine present in the sample; concentrations were calculated from the standard curve. […]

hTL1A-Ig: extracellular domain of human TL1A fused to hinge-CH2-CH3 domain of human IgG1, SEQ ID NO: 16
histopathology of midbrain, brainstem, liver and pancreas [1]: no evidence of inflammation or pathology | histopathology of sigmoid colon [1]: mild, multifocal, lymphoplasmacytic infiltrates | histopathology of terminal ileum [1]: mild, diffuse mucosal and submucosal edema | expansion of the Treg compartment at peak [2]: approximately 3 fold | serum levels of IFN-γ and TGF-β [2]: trend toward decreased levels | serum levels of IL-2, IL-4, IL-5, IL-10 or TNF-α [2]: no detectable changes | time of peak relative fold-expansion of Treg [2]: 4 days post-treatment | total frequency of Treg and proportion of Treg in active proliferation (Ki67+) (human Tregs; day 5, spleen, lymph node and small intestine): significant increase | expression of CD69 in CD4+ and CD8+ conventional cells (human Tregs; lymph nodes): not in lymph nodes | mean Treg value (human Tregs; lymph nodes, day 5, 100 μg i.p.): 1.94±0.21 | mean Treg value (±SEM) (human Tregs; small intestine, day 5, 100 μg i.p.): 4.54±0.69% | mean Treg value (±SEM), FoxP3+ out of total CD4+CD25hiCD127- cells (human Tregs; spleen, day 5, 100 μg i.p.): 1.71±0.24% | overall balance of hCD45+, hCD4+ or hCD8+ cells (human Tregs; spleen, lymph nodes, small intestine, day 5 after injection): did not significantly alter | expression of CD69 in CD8+ conventional cells (human Tregs; spleen, p=0.0064): increased expression of CD69 | expression of CD69 in CD4+ conventional cells (human Tregs; spleen, p=0.0363): increased expression of CD69 | half-life [3]: 12.5 h

B1: rmTL1A-Ig: extracellular domain of rhesus macaque TL1A fused to hinge-CH2-CH3 domain of rhesus macaque IgG1, SEQ ID NO: 10 (protein)
chain: METDTLLLWVLLLWVPGSTGDLEIKTCGGGSKPPTCPPCPAPELLGGPSVFLFPPKPKDTLMISRTPEVTCVVVDVSQEDPDVKFNWYVNGAEVHHAQTKPRETQYNSTYRVVSVLTVTHQDWLNGKEYTCKVSNKALPVPIQKTISKDKGQPREPQVYTLPPSREELTKNQVSLTCLVKGFYPSDIVVEWENSGQPENTYKTTPPVLDSDGSYFLYSKLTVDKSRWQQGNVFSCSVMHEALHNHYTQEFKGQEFAPSHQQVYAPLRADGDKPRAHLTVVTQTPTQHFKNQFPALHWEHELGLAFTKNRMNYTNKFLLIPESGDYFIYSQVTFRGMTSECSEIRQAGRPNKPDSITVVITKVTDSYPEPTQLLMGTKSVCEVGSNWFQPIYLGPMFSLQEGDKLMVNVSDISLVDYTKEDKTFFGAFLL
histopathology of midbrain, brainstem, liver and pancreas [1]: no evidence of inflammation or pathology | histopathology of sigmoid colon [1]: mild, multifocal, lymphoplasmacytic infiltrates | histopathology of terminal ileum [1]: mild, diffuse mucosal and submucosal edema | Treg expansion ([2]; 0.5 mg/kg dose versus 1.5 mg/kg): non-significantly reduced trend | expansion of the Treg compartment at peak [2]: approximately 3 fold | serum levels of IFN-γ and TGF-β [2]: trend toward decreased levels | serum levels of IL-2, IL-4, IL-5, IL-10 or TNF-α [2]: no detectable changes | time of peak relative fold-expansion of Treg [2]: 4 days post-treatment
